Broadly, the EC50 (read off the curve) is the concentration needed to bring the measured effect to its halfway point.

Drawing on US20180064666A1, this text covers EC50 (read off the curve) for two substances.

The target of this experiment is GST-Pin1 (UniProt Q13526). The experiment in a line: fluorescence polarization; labelled pTide probe titrated with GST-Pin1 (the concentration is that of GST-Pin1). Background: In fluorescence polarisation assays a small probe gives low polarisation when free and higher when bound to something large.
GST-Pin1, sequence (Q13526 whole entry): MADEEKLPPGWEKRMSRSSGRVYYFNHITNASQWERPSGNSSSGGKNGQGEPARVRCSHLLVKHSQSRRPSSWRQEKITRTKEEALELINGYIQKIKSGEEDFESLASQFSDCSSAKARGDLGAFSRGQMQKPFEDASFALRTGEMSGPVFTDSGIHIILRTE

“TAMRA-conjugated pTide (N-terminal TAMRA-labeled pTide, Bth-D-phos.Thr-Pip-Nal) (peptide)” had an EC50 (read off the curve) of 0.5 µM.

“pTide-HiLyte™ Fluor 488 (N-terminal HiLyte™ Fluor 488-labeled pTide, Bth-D-phos.Thr-Pip-Nal) (peptide)” yielded an EC50 (read off the curve) of 0.5 µM.
